This note sets out measurements from the supplement of paper PMC5998384.

Data set [1] has as its system HeLa Kyoto. The data set can be described thus: thermal stability score vs G1/S (z-score of summed log2 fold changes over temperatures); higher = more thermally stable than in G1/S.
The subject of data set [2] is HeLa Kyoto. Briefly: solubility in G1/S (NP-40 vs SDS abundance) (log2 ratio); higher = more soluble. As to conditions: cell cycle stage: G1/S.
Data set [3] concerns HeLa Kyoto. Briefly: melting temperature (median over replicates), in situ; higher = more thermally stable.
For data set [4], the system named is HeLa Kyoto. The data set can be described thus: solubility change mitosis vs G1/S (difference of NP-40 vs SDS log2 ratios) (log2 ratio difference); higher = more soluble in mitosis.
Where [5] appears, read: cell cycle stage: early G1 (4.5 h after nocodazole release).
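Wherever melting temperature (median over replicates), in situ is given: HeLa Kyoto cells synchronized by double thymidine or nocodazole block, proteins quantified by TMT10plex mass spectrometry, three independent biological replicates.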
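Wherever solubility change mitosis vs G1/S (difference of NP-40 vs SDS log2 ratios) is given: synchronized HeLa Kyoto cells (double thymidine block for G1/S, nocodazole release for mitosis), protein amounts in NP-40 versus SDS lysates quantified by mass spectrometry, three biological replicates.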
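Wherever solubility in G1/S (NP-40 vs SDS abundance) is given: HeLa Kyoto cells arrested at G1/S by double thymidine block, proteins quantified by TMT10plex mass spectrometry in mild NP-40 versus SDS extracts, three biological replicates.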
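Wherever thermal stability score vs G1/S (z-score of summed log2 fold changes over temperatures) is given: synchronized HeLa Kyoto cells, proteins quantified by TMT10plex mass spectrometry, three biological replicates, mitosis taken 0.5 h after nocodazole release, G1/S directly after double thymidine block.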

RNGTT, sequence (chain, as listed by the source): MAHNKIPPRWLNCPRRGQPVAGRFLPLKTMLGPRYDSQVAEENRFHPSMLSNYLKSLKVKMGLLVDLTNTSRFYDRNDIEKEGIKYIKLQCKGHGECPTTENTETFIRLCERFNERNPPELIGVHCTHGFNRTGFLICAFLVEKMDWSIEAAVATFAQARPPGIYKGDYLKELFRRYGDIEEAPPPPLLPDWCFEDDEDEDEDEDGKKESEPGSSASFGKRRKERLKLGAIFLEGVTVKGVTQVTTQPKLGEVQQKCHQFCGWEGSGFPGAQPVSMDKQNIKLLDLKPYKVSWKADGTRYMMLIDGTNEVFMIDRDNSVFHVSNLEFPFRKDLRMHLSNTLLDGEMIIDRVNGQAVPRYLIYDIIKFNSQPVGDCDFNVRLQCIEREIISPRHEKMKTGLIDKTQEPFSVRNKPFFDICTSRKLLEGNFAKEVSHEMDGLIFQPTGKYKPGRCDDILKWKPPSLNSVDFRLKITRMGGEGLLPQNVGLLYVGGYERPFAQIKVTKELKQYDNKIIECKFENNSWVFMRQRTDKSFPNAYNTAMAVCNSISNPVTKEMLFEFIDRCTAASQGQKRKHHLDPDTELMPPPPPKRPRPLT

For the substance “MEAVAVAAAVGVLLLAGAGGAAGDEAREAAAVRALVARLLGPGPAADFSVSVERALAAKPGLDTYSLGGGGAARVRVRGSTGVAAAAGLHRYLRDFCGCHVAWSGSQLRLPRPLPAVPGELTEATPNRYRYYQNVCTQSYSFVWWDWARWEREIDWMALNGINLALAWSGQEAIWQRVYLALGLTQAEINEFFTGPAFLAWGRMGNLHTWDGPLPPSWHIKQLYLQHRVLDQMRSFGMTPVLPAFAGHVPEAVTRVFPQVNVTKMGSWGHFNCSYSCSFLLAPEDPIFPIIGSLFLRELIKEFGTDHIYGADTFNEMQPPSSEPSYLAAATTAVYEAMTAVDTEAVWLLQGWLFQHQPQFWGPAQIRAVLGAVPRGRLLVLDLFAESQPVYTRTASFQGQPFIWCMLHNFGGNHGLFGALEAVNGGPEAARLFPNSTMVGTGMAPEGISQNEVVYSLMAELGWRKDPVPDLAAWVTSFAARRYGVSHPDAGAAWRLLLRSVYNCSGEACRGHNRSPLVRRPSLQMNTSIWYNRSDVFEAWRLLLTSAPSLATSPAFRYDLLDLTRQAVQELVSLYYEEARSAYLSKELASLLRAGGVLAYELLPALDEVLASDSRFLLGSWLEQARAAAVSEAEADFYEQNSRYQLTLWGPEGNILDYANKQLAGLVANYYTPRWRLFLEALVDSVAQGIPFQQHQFDKNVFQLEQAFVLSKQRYPSQPRGDTVDLAKKIFLKYYPRWVAGSW [NAGLU]”, the thermal stability score with HeLa Kyoto [1] (setting [5]) was -2.49; in the data set with HeLa Kyoto [1] (cell cycle stage: mitosis), -1.73. Also, the “solubility in G1/S (log2)” value in the data set on HeLa Kyoto [2] is 0.341. Also, the melting temperature stood at 55.7 °C in the data set on HeLa Kyoto [3] (cell cycle stage: G1/S) and 55.5 °C in the data set on HeLa Kyoto [3] (cell cycle stage: mitosis). Further, the “solubility change mitosis (log2)” value with HeLa Kyoto [4] was -0.238.

Take “MAENSVLTSTTGRTSLADSSIFDSKVTEISKENLLIGSTSYVEEEMPQIETRVILVQEAGKQEELIKALKTIKIMEVPVIKIKESCPGKSDEKLIKSVINMDIKVGFVKMESVEEFEGLDSPEFENVFVVTDFQDSVFNDLYKADCRVIGPPVVLNCSQKGEPLPFSCRPLYCTSMMNLVLCFTGFRKKEELVRLVTLVHHMGGVIRKDFNSKVTHLVANCTQGEKFRVAVSLGTPIMKPEWIYKAWERRNEQDFYAAVDDFRNEFKVPPFQDCILSFLGFSDEEKTNMEEMTEMQGGKYLPLGDERCTHLVVEENIVKDLPFEPSKKLYVVKQEWFWGSIQMDARAGETMYLYEKANTPELKKSVSMLSLNTPNSNRKRRRLKETLAQLSRETDVSPFPPRKRPSAEHSLSIGSLLDISNTPESSINYGDTPKSCTKSSKSSTPVPSKQSARWQVAKELYQTESNYVNILATIIQLFQVPLEEEGQRGGPILAPEEIKTIFGSIPDIFDVHTKIKDDLEDLIVNWDESKSIGDIFLKYSKDLVKTYPPFVNFFEMSKETIIKCEKQKPRFHAFLKINQAKPECGRQSLVELLIRPVQRLPSVALLLNDLKKHTADENPDKSTLEKAIGSLKEVMTHINEDKRKTEAQKQIFDVVYEVDGCPANLLSSHRSLVQRVETISLGEHPCDRGEQVTLFLFNDCLEIARKRHKVIGTFRSPHGQTRPPASLKHIHLMPLSQIKKVLDIRETEDCHNAFALLVRPPTEQANVLLSFQMTSDELPKENWLKMLCRHVANTICKADAENLIYTADPESFEVNTKDMDSTLSRASRAIKKTSKKVTRAFSFSKTPKRALRRALMTSHGSVEGRSPSSNDKHVMSRLSSTSSLAGIPSPSLVSLPSFFERRSHTLSRSTTHLI [ECT2]”: the figures for the thermal stability score with HeLa Kyoto [1] (setting [5]) and with HeLa Kyoto [1] (cell cycle stage: mitosis) were 0.718 and 0.962, respectively. The “solubility in G1/S (log2)” value in the data set on HeLa Kyoto [2] was -0.347. In addition, the melting temperature in the data set on HeLa Kyoto [3] (cell cycle stage: G1/S) worked out at 46.9 °C; with HeLa Kyoto [3] (cell cycle stage: mitosis) it was 49.4 °C. The “solubility change mitosis (log2)” value with HeLa Kyoto [4] was determined as 0.255.

As for “MAVTGWLESLRTAQKTALLQDGRRKVHYLFPDGKEMAEEYDEKTSELLVRKWRVKSALGAMGQWQLEVGDPAPLGAGNLGPELIKESNANPIFMRKDTKMSFQWRIRNLPYPKDVYSVSVDQKERCIIVRTTNKKYYKKFSIPDLDRHQLPLDDALLSFAHANCTLIISYQKPKEVVVAESELQKELKKVKTAHSNDGDCKTQ [DPCD]”, the thermal stability score amounted to 0.4 in the data set on HeLa Kyoto [1] (setting [5]) and 0.716 in the data set on HeLa Kyoto [1] (cell cycle stage: mitosis). The “solubility in G1/S (log2)” value in the data set on HeLa Kyoto [2] came to 0.223. Besides, the melting temperature worked out at 49.9 °C in the data set with HeLa Kyoto [3] (cell cycle stage: G1/S) and 49 °C in the data set with HeLa Kyoto [3] (cell cycle stage: mitosis). In addition, the “solubility change mitosis (log2)” value in the data set on HeLa Kyoto [4] was -0.0049.

For the substance “MATSVGHRCLGLLHGVAPWRSSLHPCEITALSQSLQPLRKLPFRAFRTDARKIHTAPARTMFLLRPLPILLVTGGGYAGYRQYEKYRERELEKLGLEIPPKLAGHWEVALYKSVPTRLLSRAWGRLNQVELPHWLRRPVYSLYIWTFGVNMKEAAVEDLHHYRNLSEFFRRKLKPQARPVCGLHSVISPSDGRILNFGQVKNCEVEQVKGVTYSLESFLGPRMCTEDLPFPPAASCDSFKNQLVTREGNELYHCVIYLAPGDYHCFHSPTDWTVSHRRHFPGSLMSVNPGMARWIKELFCHNERVVLTGDWKHGFFSLTAVGATNVGSIRIYFDRDLHTNSPRHSKGSYNDFSFVTHTNREGVPMRKGEHLGEFNLGSTIVLIFEAPKDFNFQLKTGQKIRFGEALGSL [PISD]”, the thermal stability score in the data set on HeLa Kyoto [1] (setting [5]) is -1.35; in the data set with HeLa Kyoto [1] (cell cycle stage: mitosis), -0.739. Moreover, the “solubility in G1/S (log2)” value with HeLa Kyoto [2] is -0.127. The melting temperature with HeLa Kyoto [3] (cell cycle stage: G1/S) was 51.7 °C; in the data set on HeLa Kyoto [3] (cell cycle stage: mitosis), 50.9 °C. For the same substance, in the data set on HeLa Kyoto [4], the “solubility change mitosis (log2)” value is -0.00593.

For the substance RNGTT, the thermal stability score in the data set on HeLa Kyoto [1] (setting [5]) amounted to 0.407; in the data set with HeLa Kyoto [1] (cell cycle stage: mitosis) it was 0.579. Moreover, in the data set on HeLa Kyoto [2], the “solubility in G1/S (log2)” value was -0.301. In addition, the melting temperature with HeLa Kyoto [3] (cell cycle stage: G1/S) came out at 47.7 °C; in the data set with HeLa Kyoto [3] (cell cycle stage: mitosis), 48.7 °C. The “solubility change mitosis (log2)” value in the data set on HeLa Kyoto [4] was -0.0839.
